Drawing on publication PMC6208348 (Nature Communications, 2018), this text covers Kd for one molecule.

In this experiment the target is wild-type Src SH2 domain (UniProt P12931 151-248). Put plainly: fluorescence polarisation. The conditions noted are these: both partners purified. On the technique in general: Fluorescence polarisation rises when a labelled molecule tumbles more slowly, as on binding a larger partner.

Non-standard residues stand in square brackets, D forms with d. No end group written: not given here. pY = N[C@@H](Cc1ccc(OP(=O)(O)O)cc1)C(=O)O

As to GG[pY]GG (source: synthetic peptide) [mini peptide GGpYGG], the Kd (commonly the free concentration of one partner at which half of the binding sites on the other are occupied at equilibrium, for simple one-to-one binding) is over 50 µM.
